The text below walks through data of paper PMC4649674, “Structural insights into HetR−PatS interaction involved in cyanobacterial pattern formation” (Scientific Reports, 2015).

The target in experiment [1] is T1, HetR double mutant D270A/D278A (Nostoc sp., UniProt P27709, D270A/D278A).
T1 construct: 15 times (150 or 750 μM) to that of the full-length protein or 40 times (2 mM) to that of HetRHood; six-histidine tag (N); made in house; host or cells: Escherichia coli Rosetta (DE3)
Briefly: ITC binding of PatS6 to HetR double mutant D270A/D278A. Also noted: species or system Anabaena sp. PCC 7120. Particulars: 25 °C, 1 M NaCl, 5% (v/v) glycerol, 10 mM Tris-Cl, pH 7.8, protein 50 μM, PatS6 750 μM. The method, then: (§1) The selenium-methionine-labeled HetR (SeMet HetR) was expressed in E. coli strain B834 (DE3) (Novagen, Madison). Transformed cells were first cultured in 2 × YT medium at 37 °C overnight, then harvested and washed twice with the M9 medium. Then the cells were cultured in SeMet medium (M9 medium with 50 mg/l SeMet and other essential amino acids at 50 mg/l) to an OD600 nm of approximately 1.0. The following steps in protein expression and purification were the same as those for the native protein. Site-directed mutagenesis was performed using the QuickChange site-directed mutagenesis kit (Stratagene, La Jolla) with the plasmid encoding the wild-type HetR as the template. The mutant protein was expressed, purified and stored in the same manner as the wild-type protein.
(§2) The related Kd values are
(§3) calculated and shown above the figures. ND stands for “not detectable”.

The target of the next experiment is T2, HetR mutant E253A (Nostoc sp., UniProt P27709, E253A).
T2 construct: 15 times (150 or 750 μM) to that of the full-length protein or 40 times (2 mM) to that of HetRHood; six-histidine tag (N); made in house; host or cells: Escherichia coli Rosetta (DE3)
T2 sequence (P27709 whole entry E253A): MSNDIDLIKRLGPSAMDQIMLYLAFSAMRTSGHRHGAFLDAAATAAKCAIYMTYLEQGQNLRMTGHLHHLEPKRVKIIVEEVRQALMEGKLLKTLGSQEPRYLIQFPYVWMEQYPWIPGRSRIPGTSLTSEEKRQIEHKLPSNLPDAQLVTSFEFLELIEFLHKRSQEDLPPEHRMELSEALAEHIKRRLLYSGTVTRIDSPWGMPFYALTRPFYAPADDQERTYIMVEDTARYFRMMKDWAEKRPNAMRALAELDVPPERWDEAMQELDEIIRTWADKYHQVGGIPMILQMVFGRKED
Briefly: ITC binding of PatS6 to HetR mutant E253A. Also noted: species or system Anabaena sp. PCC 7120. As to conditions: 25 °C, 1 M NaCl, 5% (v/v) glycerol, 10 mM Tris-Cl, pH 7.8, protein 50 μM, PatS6 750 μM. The method, then: as §1, §2, §3

The target of experiment [2] is PatS5 (Nostoc sp. PCC 7120). As to conditions: cited from earlier work.
In experiment [3] the target is PatS6 (Nostoc sp. PCC 7120). As to conditions: cited from earlier work.
In experiment [4] the test system is E253D mutant strain (hetR). Also noted: method as in PMID 21942265. Particulars: in vivo; cited from earlier work.
For the next experiment, the system named is HetR. Particulars: cited from earlier work. An excerpt:
Heterocyst pattern was first speculated to be controlled by a pentapeptide RGSGR (designated as PatS5), a motif which was identified first as the C-terminal five residues of PatS[16], and later within a putative ketoacyl reductase HetN[17].

Experiment [5] has as its target T3, HetR (wild type, full-length) from Anabaena sp. PCC 7120 (Anabaena sp. PCC 7120, UniProt P27709 1-299).
T3 construct: HetR, transcription factor of Anabaena sp; PCC 7120; DBD 1-98, flap domain 99-216, hood domain 217-299; Intertwined homodimer in the crystal with 21-bp hetP promoter DNA; A SeMet-labelled form (E. coli B834) was used for phasing only; also called wild-type HetR; full-length HetR; source: E. coli Rosetta (DE3), purified (Ni-NTA, Superdex 75)
T3 sequence (looked up): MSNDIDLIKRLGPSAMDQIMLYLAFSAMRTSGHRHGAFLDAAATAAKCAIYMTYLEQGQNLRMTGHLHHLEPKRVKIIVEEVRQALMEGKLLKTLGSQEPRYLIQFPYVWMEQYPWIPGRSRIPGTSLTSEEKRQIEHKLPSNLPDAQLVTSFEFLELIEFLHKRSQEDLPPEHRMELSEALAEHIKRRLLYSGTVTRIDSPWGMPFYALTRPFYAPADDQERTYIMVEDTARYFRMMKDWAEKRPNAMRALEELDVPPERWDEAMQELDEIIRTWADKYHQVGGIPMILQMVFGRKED
Briefly: ITC; iTC200, 25 °C; protein in the sample cell (10 or 50 μM), PatS6 in the syringe (150 or 750 μM; 2 mM for HetR_(Hood)); 1 M NaCl, 5% (v/v) glycerol, 10 mM Tris-Cl, pH 7.8. As to conditions: both partners purified.

A further experiment concerns the target T4, HetR R223W (Anabaena sp. PCC 7120, UniProt P27709 1-299, R223W).
T4 construct: HetR of Anabaena sp; PCC 7120, point mutant made from the plasmid of wild-type HetR; source: E. coli, purified in the same manner as the wild-type protein
T4 sequence (looked up): T3 sequence (looked up) with R223W
Described as above. As to conditions: both partners purified.

The target of experiment [6] is T5, HetR hood domain (Asp219-Asp299), HetR_(Hood) (Anabaena sp. PCC 7120, UniProt P27709 219-299).
T5 construct: HetR of Anabaena sp; PCC 7120, individual hood domain, residues Asp219-Asp299; Entwined dimer in the crystal; four molecules (two dimers) in the asymmetric unit; source: E. coli Rosetta (DE3), purified (Ni-NTA, Superdex 75)
T5 sequence (looked up): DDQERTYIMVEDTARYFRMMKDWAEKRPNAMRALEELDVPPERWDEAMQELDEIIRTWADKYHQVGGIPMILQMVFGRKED
The description is as above. As to conditions: both partners purified.

The target of another experiment is T6, HetR D278A (Anabaena sp. PCC 7120, UniProt P27709 1-299, D278A).
T6 construct: HetR of Anabaena sp; PCC 7120, point mutant made from the plasmid of wild-type HetR; source: E. coli, purified in the same manner as the wild-type protein
T6 sequence (looked up): T3 sequence (looked up) with D278A
Described as above. Particulars: both partners purified.

In another experiment the target is T7, HetR E254A (Anabaena sp. PCC 7120, UniProt P27709 1-299, E254A).
T7 construct: HetR of Anabaena sp; PCC 7120, point mutant made from the plasmid of wild-type HetR; source: E. coli, purified in the same manner as the wild-type protein
T7 sequence (looked up): T3 sequence (looked up) with E254A
The experiment is described as above. Particulars: both partners purified.

A further experiment has as its target T8, HetR D256A (Anabaena sp. PCC 7120, UniProt P27709 1-299, D256A).
T8 construct: HetR of Anabaena sp; PCC 7120, point mutant made from the plasmid of wild-type HetR; source: E. coli, purified in the same manner as the wild-type protein
T8 sequence (looked up): T3 sequence (looked up) with D256A
Described as above. Particulars: both partners purified.

Another experiment has as its target T9, HetR D270A (Anabaena sp. PCC 7120, UniProt P27709 1-299, D270A).
T9 construct: HetR of Anabaena sp; PCC 7120, point mutant made from the plasmid of wild-type HetR; source: E. coli, purified in the same manner as the wild-type protein
T9 sequence (looked up): T3 sequence (looked up) with D270A
The description is as above. Particulars: both partners purified.

Where a chain is given by its changes, count along the chain named.

T1 sequence (P27709 whole entry D270A/D278A): as the sequence (P27709 whole entry E253A) above, with A253E, D270A, D278A counted along it

`N=C(N)NCCC[C@H](NC(=O)CNC(=O)[C@H](CO)NC(=O)CNC(=O)[C@H](CCCNC(=N)N)NC(=O)[C@@H](N)CCC(=O)O)C(=O)O` [PatS6]: the “binding affinity towards D270A/D278A” value in experiment [1] is on record as “no detectable binding affinity”. Also, the “PatS6-binding affinity towards E253A” value on HetR mutant E253A is “totally abolished the PatS6-binding affinity”.
With HetR (from UniProt P27709), the Kd in experiment [2] was 227 nM; in experiment [3], 7 nM.
“RGSGR [PatS5, pentapeptide RGSGR, C-terminal five residues of PatS]”: in experiment [4], the “sensitivity of E253D mutant strain to PatS5” value was “drastically reduced sensitivity to PatS5”. Besides, the “effect of PatS5 binding on DNA-binding capacity of HetR” value in the experiment with HetR was “may abolish the DNA-binding capacity of HetR”. Besides, in the experiment with HetR (in vitro binding assays), the “molecules bound per HetR homodimer” value was “two”.

B1: PatS6 (PatS-derived hexapeptide ERGSGR) (peptide)
peptide: ERGSGR
notes: PatS-derived hexapeptide; RGSGR is the C-terminal five residues of PatS of Anabaena sp; PCC 7120; source: synthetic peptide (GL Biochem, Shanghai)
As to B1, the Kd in experiment [5] came out at 12 nM; with HetR R223W it was 2350 nM; in [6], 24 µM; in the experiment with HetR D278A it was 1630 nM; with HetR E254A, 91 nM; with HetR D256A, 427 nM. Further, in the experiment with HetR D270A, the Kd is 2250 nM.
